Measured values from patent publication US20230094867A1 (Janssen / Centocor, published 2023).
Values joined by “and” are separate entries in the source; they are usually repeats but may differ in a detail not shown here. Equal values may be shown once.

What was measured:
[1] = molecular target: T1, CD9B503 (CD9B441-HL-scFv-Fc bivalent fusion protein) (Biotinylated in the panning and MSD screening assays of Example 1.); test: SPR (Biacore), mAb captured on anti-mouse Fc chip, scFv-Fc antigen 100 nM to 0.16 nM in solution
T1 construct: also called CD9B441-derived scFv-fusion protein
Protocol: (§1) Biacore system (Cytiva) was used to measure bio-molecular interactions by surface plasmon resonance (SPR). Anti-Mouse Fc antibody directly immobilized on a CMS sensor chip. Library Antibodies (Mouse IgG2a) diluted to 1 ug/ml to reach approximately 20-60 RU. Antigens (scFv Fc fusions) are associated at 100 nM to 0.16 nM, 1:5 dilutions for 3 minutes. Dissociation for 30 mins. The results of the assay (Table 1 below) show the nanomolar dissociation constant of A003B192 and A003B274 with CD9B503 (CD9B441-HL-scFv-Fc bivalent fusion protein) and CD9B574 (CD9B441-LH-scFv-Fc monovalent fusion protein).

[2] = molecular target: T2, CD79b CAR (CD9B441-HL) expressed on SupT1 cells; test: flow cytometry on live CD9B441-HL SupT1 cells, detected with PE goat anti-mouse IgG; PE median fluorescence intensity
T2 construct: Chimeric antigen receptor with the CD9B441 scFv in VH-VL order; also called SupT1-CD9B441-HL; CD9B441-HL SupT1 cells
Protocol: SupT1 cells expressing CD9B441-HL were compared to parental CAR-SupT1 cells. Cells (200,000 cells/well) were stained with LIVE/DEAD Fixable Near-IR viability dye (Life Technologies cat #L10119) and then incubated with increasing concentrations of A003B192 and A003B274 for 45 minutes on ice. In addition, both anti-idiotypic antibodies were tested in the presence of Fc-CD9B441-HL fusion protein to assess the specificity of A003B192 and A003B274 binding to CD9B441-HL CAR. Following incubation, the samples were washed with BSA stain buffer (BD Biosciences cat #554657) and stained with PE-goat anti-mouse IgG polyclonal antibody (Biolegend cat #405307) to detect bound antibody on live CAR+SupT1 cells. After incubation, washing, and fixation (Cytofix, BD Biosciences cat #554655), the samples were acquired on a 10 color FACSCanto II (BD Biosciences) flow cytometer. Analysis was done using FlowJo (TreeStar) and the PE median fluorescent intensity of live CAR+SupT1 cells plotted in FIG. 3A. No binding was detected on CAR-SupT1 parental cells (data not shown) or in the presence of excess Fc-CD9B441-HL CAR fusion protein.

[3] = molecular target: T1, CD9B503 (CD9B441-HL-scFv-Fc bivalent …); test: MSD electrochemiluminescent immunoassay, crude Fab lysate on biotinylated scFv-Fc on streptavidin plate
Protocol: The monoclonal Fab lysates prepared from the enriched Fab libraries were screened in Meso Scale Discovery (MSD) based electro-chemiluminescent immunoassays (ECLIA) for binding to CD9B503 but not to a similar negative control scFv fusion protein CD9B504 (CD9B449-HL-scFv Fc). Biotinylated ScFv-Fc fusion antigens, target antigen CD9B503 or negative control scFv fusion protein counter screening reagent CD9B504, were diluted to a concentration of 2.5 nM in SuperBlock T20 (TBS) Blocking Buffer (Thermo cat #37536) and 50 ul/well was added to their respective MSD 384-well streptavidin plates (Meso Scale Discovery cat #L21SA-5) and incubated on a shaker for 30 min at RT. The plates were washed 1×80 ul/well 1×PBST and crude Fab lysates from E. coli expressions in 96-well plates were stamped into the 384-well assay plates in duplicate and incubated on a shaker for 1 hour at RT. The assay plates were washed 1×80 ul/well 1×PBST and 6 nM of SULFO-TAG Anti-human/NHP Kappa Antibody (Meso Scale cat #D20TF-6) added at 10 ul/well, and the plates incubated on a shaker for 1 hour at RT. The plates were washed 2×80 ul/well 1×PBST and 35 ul/well of 1×MSD Read Buffer T (Meso Scale cat #R92TC-1) added to each well and the plates analyzed on an MSD Sector 5600 plate reader. […]

[4] = molecular target: T2, CD79b CAR (CD9B441-HL) expressed on …; test: flow cytometry on live CD9B441-HL SupT1 cells with directly rPE-conjugated antibody; PE median fluorescence intensity
[5] = molecular target: T3, CD9B574 (CD9B441-LH-scFv-Fc monovalent fusion protein); test: SPR (Biacore), mAb captured on anti-mouse Fc chip, scFv-Fc antigen 100 nM to 0.16 nM in solution
T3 construct: Described only as CD9B441-LH-scFv-Fc monovalent fusion protein
Protocol: as §1

T1 sequence (scFv, as listed by the source limits assumed): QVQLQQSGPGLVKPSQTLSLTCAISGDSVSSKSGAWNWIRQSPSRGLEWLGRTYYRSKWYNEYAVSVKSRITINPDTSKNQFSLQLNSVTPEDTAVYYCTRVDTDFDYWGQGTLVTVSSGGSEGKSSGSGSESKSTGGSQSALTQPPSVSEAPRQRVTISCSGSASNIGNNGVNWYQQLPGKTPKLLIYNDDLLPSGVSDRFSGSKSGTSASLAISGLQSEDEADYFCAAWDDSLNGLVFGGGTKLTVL
T2 sequence (chain, as listed by the source limits assumed): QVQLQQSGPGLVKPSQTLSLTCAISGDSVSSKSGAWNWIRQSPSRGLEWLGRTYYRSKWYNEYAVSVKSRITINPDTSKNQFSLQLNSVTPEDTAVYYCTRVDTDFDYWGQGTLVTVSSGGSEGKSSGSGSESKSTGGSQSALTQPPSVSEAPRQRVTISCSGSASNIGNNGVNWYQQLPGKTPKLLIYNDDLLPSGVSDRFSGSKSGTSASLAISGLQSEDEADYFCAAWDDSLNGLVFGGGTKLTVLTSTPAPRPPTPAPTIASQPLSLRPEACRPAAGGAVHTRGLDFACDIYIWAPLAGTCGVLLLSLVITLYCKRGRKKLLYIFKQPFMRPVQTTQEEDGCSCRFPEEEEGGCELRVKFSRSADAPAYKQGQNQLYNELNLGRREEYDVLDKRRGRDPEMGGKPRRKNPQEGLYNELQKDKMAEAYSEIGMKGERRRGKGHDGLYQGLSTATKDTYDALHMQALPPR
T3 sequence (scFv, as listed by the source limits assumed): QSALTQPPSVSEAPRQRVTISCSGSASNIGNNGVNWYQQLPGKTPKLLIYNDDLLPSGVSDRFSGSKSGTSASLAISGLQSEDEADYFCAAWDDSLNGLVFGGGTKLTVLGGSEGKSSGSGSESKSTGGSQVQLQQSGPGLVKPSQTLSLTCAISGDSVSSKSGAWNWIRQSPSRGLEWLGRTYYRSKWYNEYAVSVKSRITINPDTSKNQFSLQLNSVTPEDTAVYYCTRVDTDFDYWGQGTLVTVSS

Row | Kd [1] | EC50 (read off the curve) [2] [µg/mL] | signal ratio of CD9B503 over CD9B504 [3] | Binder | other results
1 |  |  | 10 | CL002588437 (monoclonal Fab, parent clone for the VH and VL in A003B274) (Fab, V domains shown, Soluble human Fab in crude E. coli lysate) VH: QVQLVQSGAEVKKPGSSVKVSCKASGGTFKSYAISWVRQAPGQGLEWMGYISPESGTANYAQKFQGRVTITADESTSTAYMELSSLRSEDTAVYYCARERYYYGYRRYRYYGMDVWGQGTLVTVSS VL: not shown | 
2 |  |  | 10 | CL002588468 (monoclonal Fab, parent clone for the VH and VL in A003B192) (Fab, V domains shown, Soluble human Fab in crude E. coli lysate) VH: QVQLVQSGAEVKKPGSSVKVSCKASGGTFKSDAISWVRQAPGQGLEWMGGIRPNEGNAEYAQKFQGRVTITADESTSTAYMELSSLRSEDTAVYYCARGRYGAYRLVYYAFDYWGQGTLVTVSS VL: not shown | 

Second part, the binder before the results:

Row | Binder | Kd [1] | EC50 (read off the curve) [2] [µg/mL] | signal ratio of CD9B503 over CD9B504 [3] | other results
3 | A003B274 (antibody, mouse IgG2a, kappa, V domains shown, also called anti-idiotypic antibody A003B274; HC construct PBD000109922 / LC construct PBD00098715) VH: QVQLVQSGAEVKKPGSSVKVSCKASGGTFKSYAISWVRQAPGQGLEWMGYISPESGTANYAQKFQGRVTITADESTSTAYMELSSLRSEDTAVYYCARERYYYGYRRYRYYGMDVWGQGTLVTVSS VL: not shown | 0.23 nM and 0.226 nM | ~0.04 |  | 
4 | recombinant phycoerythrin-conjugated A003B192 (antibody, mouse IgG2a, kappa, V domains shown, antibody conjugated to recombinant phycoerythrin (rPE), 1:1 PE:antibody; site of attachment not stated, also called A003B192 conjugated to rPE; PE-antibody conjugate) VH: QVQLVQSGAEVKKPGSSVKVSCKASGGTFKSDAISWVRQAPGQGLEWMGGIRPNEGNAEYAQKFQGRVTITADESTSTAYMELSSLRSEDTAVYYCARGRYGAYRLVYYAFDYWGQGTLVTVSS VL: not shown |  |  |  | binding result [4]: binds
5 | A003B192 (antibody, mouse IgG2a, kappa, V domains shown, also called anti-idiotypic antibody A003B192; HC construct PBD000109791 / LC construct PBD00098715) VH: QVQLVQSGAEVKKPGSSVKVSCKASGGTFKSDAISWVRQAPGQGLEWMGGIRPNEGNAEYAQKFQGRVTITADESTSTAYMELSSLRSEDTAVYYCARGRYGAYRLVYYAFDYWGQGTLVTVSS VL: not shown | 0.04 nM and 0.037 nM | ~0.02 |  | Kd [5]: 1.6 nM and 1.61 nM
